Assay results published in patent US20230190870A1, “Method for Treating Lysosomal Storage Diseases with Histatin Peptides” (THE BOARD OF TRUSTEES OF THE UNIVERSITY OF ILLINOIS, priority 2020, published 2023).
Square brackets hold non-standard residues; d marks the D form. Ends that are not written are not given here. pS = N[C@@H](COP(=O)(O)O)C(=O)O

What was measured:
[1] = target: T1, TMEM97 (S2R) containing HEK293T membranes (Homo sapiens, UniProt Q5BJF2); assay: Radioligand binding/competition assay with [3H]-DTG (UNC PDSP); conditions: secondary radioligand binding assay; hot ligand [3H]-DTG
T1 construct: expressed in transfected cells; host or cells: HEK293T (transient overexpression; membranes prepared by UNC PDSP)
T1 sequence (Q5BJF2 whole entry, species assumed): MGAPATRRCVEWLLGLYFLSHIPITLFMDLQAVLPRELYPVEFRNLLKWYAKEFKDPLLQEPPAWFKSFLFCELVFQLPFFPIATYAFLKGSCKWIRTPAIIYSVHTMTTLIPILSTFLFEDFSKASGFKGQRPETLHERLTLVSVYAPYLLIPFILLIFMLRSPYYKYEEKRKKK

[2] = test system: Human corneal epithelial cells; assay: Calcium Green-2 calcium signaling in human corneal epithelial cells; type: cell-based
Experimental: Calcium Signaling. Human corneal epithelial cells were treated with Hst1 or Hst5, stained with Calcium Green-2, and relative fluorescence intensity was monitored at 1, 2 and 4 hours. […] This normalization of cellular calcium levels seen after toxicity from benzalkonium chloride treatment is analogous to toxic effects seen in chronic pain and other conditions. As such, histatin peptides may of use in the amelioration of chronic pain.

human corneal epithelium = assay: Hyperosmolarity-induced apoptotic signals (Caspase 3/7); type: cell-based; conditions: 450 mOsm
Excerpt: (§1) Apoptosis. […] BAK and hOsm are standard inducers of corneal epithelial and neuronal cell death and toxicity, phenomena which are associated with ocular surface pain and chronic pain syndromes.

[3] = test system: Human corneal epithelial cells; assay: Cell viability of BAK-treated human corneal epithelial cells; type: cell-based; conditions: benzalkonium chloride (BAK) treatment
Excerpt: as §1

Candida albicans = conditions: cited from earlier work
[4] = target: T2, Recombinant full-length TMEM97 (from HEK293 cells, OriGene) (UniProt Q5BJF2 1-176); assay: SPR, TMEM97 immobilized on CM5 chip
T2 construct: Bought protein, said to be full-length; Immobilized on a CM5 chip; also called MAC30

[5] = target: T3, Synthetic TMEM97 (108-176) peptide; assay: SPR
T3 construct: Synthetic peptide; also called full C-terminal synthetic TMEM97
T3 peptide: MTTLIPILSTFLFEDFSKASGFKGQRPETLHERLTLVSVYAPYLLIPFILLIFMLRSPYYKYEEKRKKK

[6] = target: T4, Synthetic TMEM97 (144-176) peptide; assay: SPR
T4 construct: Synthetic peptide; also called (predicted) cytoplasmic segment
T4 peptide: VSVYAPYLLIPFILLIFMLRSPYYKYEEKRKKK

[7] = target: T5, Synthetic TMEM97 (108-143) peptide; assay: SPR
T5 construct: Synthetic peptide; also called (predicted) luminal segment
T5 peptide: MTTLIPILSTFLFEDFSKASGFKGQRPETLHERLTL

[8] = target: T4, Synthetic TMEM97 (144-176) peptide; assay: ITC, Hst1 titrated into the C-terminal TMEM97 peptide (taken as 144-176); ITC, not SPR; C-terminal fragment taken as 144-176
[9] = target: T6, GST-TMEM97 (108-176), recombinant from wheat germ (Abnova) (UniProt Q5BJF2 108-176); assay: SPR, GST-TMEM97 (108-176) immobilized on CM5 chip, Hst1 as analyte; GST-tagged wheat-germ TMEM97 (108-176); SPR
T6 construct: not shown: GST tag

[10] = target: T4, Synthetic TMEM97 (144-176) peptide; assay: ITC, Hst1 titrated into the C-terminal TMEM97 peptide (taken as 144-176)
[11] = target: T3, Synthetic TMEM97 (108-176) peptide; assay: ITC, Hst1 titrated into synthetic TMEM97 (108-176)
[12] = target: T3, Synthetic TMEM97 (108-176) peptide; assay: SPR, synthetic TMEM97 (108-176) immobilized, Hst1 as analyte; SPR; synthetic TMEM97 (108-176)
[13] = target: T6, GST-TMEM97 (108-176), recombinant from …; assay: SPR
[14] = target: T4, Synthetic TMEM97 (144-176) peptide; assay: SPR, synthetic TMEM97 (144-176) immobilized, Hst1 as analyte; SPR; synthetic TMEM97 (144-176)
[15] = target: T3, Synthetic TMEM97 (108-176) peptide; assay: ITC, Hst1 titrated into synthetic TMEM97 (108-176); ITC, not SPR; TMEM97 (108-176)

`CC(C)C[C@H](NC(=O)[C@H](Cc1ccc(O)cc1)NC(=O)[C@H](CC(N)=O)NC(=O)[C@H](CO)NC(=O)[C@H](CCCNC(=N)N)NC(=O)[C@H](Cc1ccc(O)cc1)NC(=O)CNC(=O)[C@H](CCCNC(=N)N)NC(=O)[C@H](Cc1c[nH]cn1)NC(=O)[C@H](CO)NC(=O)[C@H](Cc1c[nH]cn1)NC(=O)[C@H](Cc1c[nH]cn1)NC(=O)[C@H](CCCCN)NC(=O)[C@H](CCC(=O)O)NC(=O)[C@H](Cc1c[nH]cn1)NC(=O)[C@H](Cc1ccccc1)NC(=O)[C@H](CCCCN)NC(=O)[C@H](CCCNC(=N)N)NC(=O)[C@H](CCCCN)NC(=O)[C@H](Cc1ccc(O)cc1)NC(=O)CNC(=O)[C@H](Cc1c[nH]cn1)NC(=O)[C@H](Cc1c[nH]cn1)NC(=O)[C@H](CCCNC(=N)N)NC(=O)[C@H](CCCCN)NC(=O)[C@H](C)NC(=O)[C@H](Cc1c[nH]cn1)NC(=O)[C@H](CO)NC(=O)[C@@H](N)CC(=O)O)C(=O)N[C@@H](Cc1ccc(O)cc1)C(=O)N[C@@H](CC(=O)O)C(=O)N[C@@H](CC(N)=O)C(=O)O` [Hst3] gave a Ki [1] of 1090 nM.

With `C[C@H](NC(=O)[C@H](Cc1c[nH]cn1)NC(=O)[C@H](CO)NC(=O)[C@@H](N)CC(=O)O)C(=O)N[C@@H](CCCCN)C(=O)N[C@@H](CCCNC(=N)N)C(=O)N[C@@H](Cc1c[nH]cn1)C(=O)N[C@@H](Cc1c[nH]cn1)C(=O)NCC(=O)N[C@@H](Cc1ccc(O)cc1)C(=O)N[C@@H](CCCCN)C(=O)N[C@@H](CCCNC(=N)N)C(=O)N[C@@H](CCCCN)C(=O)N[C@@H](Cc1ccccc1)C(=O)N[C@@H](Cc1c[nH]cn1)C(=O)N[C@@H](CCC(=O)O)C(=O)N[C@@H](CCCCN)C(=O)N[C@@H](Cc1c[nH]cn1)C(=O)N[C@@H](Cc1c[nH]cn1)C(=O)N[C@@H](CO)C(=O)N[C@@H](Cc1c[nH]cn1)C(=O)N[C@@H](CCCNC(=N)N)C(=O)NCC(=O)N[C@@H](Cc1ccc(O)cc1)C(=O)O` [Hst5] the Ki [1] was 582 nM, the “calcium signaling (relative fluorescence intensity)” value ([2]; 1, 2 and 4 hours) was “increases calcium signaling” and the “elevated calcium levels after benzalkonium chloride” value ([2]; cells treated with 0.001% BAK) was “reduced elevated calcium levels”. The “hyperosmolarity-induced apoptotic signals (Caspase 3/7)” value (human corneal epithelium) was “abrogates the effects of toxic hyperosmolarity” and the “BAK-induced loss of cell viability” value [3] was “abrogated”.

In the case of “AKRHHGYKRKFH [Histatin P-113, histatin-derived antimicrobial peptide]”, the fungicidal activity (Candida albicans) is given as “fungicidal activity”.

B1: Hst1 scrambled peptide (Hst1SP) (peptide)
peptide: HYHKFHRYYDPGSNLYKEHNHGFHHGYKDEFRRE[pS]RDS
notes: Synthetic scrambled control of Hst1; also called scrambled peptide control version of Hst1
B1: no binding [4].

DSHEKRHHGYRRKF (not fully specified (residue 2); ends and bridges not checked, Fragment of Hst1) [Hst1(1-14)]: no binding [5]; no binding [6]; no binding [7].

B2: Histatin 1 (Hst1) (peptide)
peptide: D[pS]HEKRHHGYRRKFHEKHHSHREFPFYGDYGSNYLYDN
notes: Synthetic linear peptide made by Fmoc solid-phase synthesis; also called Hst1(1-38); H1
Molecule B2 has a Kd [8] of 460 nM, a Kd [9] of 1600 nM and a ΔH [10] of -790 kcal/mol. It also gave a ΔS [10] of -2280 cal/mol K, a ΔH [11] of -4.9 kcal/mol and a ΔS [11] of 11.6 cal/mol K. It also gave a Kd [12] of 2800 nM, a Kd [5] of 2400 nM and a Kd [6] of 2400 nM. For the same molecule, the Kd [13] was 1500 nM, the binding result [7] was “no binding” and the Kd [14] was 2700 nM. It also gave a Kd [15] of 890 nM.

DSHEKRHHGYRRKFHEKHHSHREFPF (not fully specified (residue 2); ends and bridges not checked, Fragment of Hst1) [Hst1(1-26)] showed a Kd [5] of 1300 nM, a Kd [6] of 1700 nM and a Kd [13] of 2100 nM. DSHEKRHHGYRRKFHEKHHSHREFPF (not fully specified (residue 2); ends and bridges not checked, Fragment of Hst1) [Hst1(1-26)]: no binding [7].
